Experimental findings from US20250092124A1 (YUNNAN BAIYAO GROUP, published 2025) are described below.

Read-outs that look alike come from different tables or passages of the source.

The target of experiment [1] is T1, fusion protein comprising the extracellular region of human GDF15 protein and human IgG1-FC (human, UniProt Q99988 197-308, limits assumed).
T1 construct: extracellular domain
T1 sequence (looked up): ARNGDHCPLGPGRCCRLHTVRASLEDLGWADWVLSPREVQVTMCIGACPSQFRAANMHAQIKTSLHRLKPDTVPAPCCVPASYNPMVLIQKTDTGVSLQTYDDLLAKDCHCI
Description: ELISA, human GDF15-hIgG1 Fc coated, HRP anti-mouse IgG. How it is done:
(§1) A fusion protein comprising the extracellular region of human GDF15 protein (Genbank accession number NM_004864.3) and human IgG1-FC (Genbank accession number CAC20454.1) was diluted to 1 ng/ml with coating solution, followed by adding to ELISA plate at 50 μl/well and incubating at 4° C. overnight. The solution in the wells was discarded and the plate was washed 3 times with washing solution, each time for 3-5 minutes, and dried by tapping. 200 μl of blocking solution was added to each well and incubated at 4° C. overnight. The plate was washed 3 times with washing solution, and the coated plate may be stored at −20° C. or 4° C. for future use.
(§2) The antibodies to be tested (purified antibodies from hybridoma, see Table 1), positive control antibody AV380-mIgG1 (its sequence is from Aveo Oncology; see SEQ ID NO. 1 and SEQ ID NO. 2 for its heavy chain and light chain variable regions, respectively; see SEQ ID NO. 3 and SEQ ID NO. 4 for its heavy chain and light chain constant regions, respectively) and blank control (PBS) were added to the wells. […] The wells were incubated at 37° C. for 1 hour, washed, and dried via tapping. Then the enzyme-labeled secondary antibody, horseradish peroxidase-labeled goat anti-mouse IgG (SIGMA, catalog number A9044-2 ml) was added to each well, at a dilution of 1:10000, 100 μl/well. The wells were incubated at 37° C. for 2 hours, washed, and dried via tapping. 100 μl of freshly prepared developing solution TMB was added to each well and incubated at 37° C. for 30 minutes.
(§3) 2 mol/L H₂SO₄ was added to terminate the reaction, and the OD values were read on enzyme-linked immunosorbent reader. The results were shown in Table 1-1, Table 1-2 and FIGS. 1-1 and 1-2.

Experiment [2] addresses T2, fusion protein comprising the extracellular region of monkey GDF15 protein and human IgG1-FC (monkey (cyno); human, UniProt G7PWZ3 197-308, limits assumed).
T2 construct: extracellular domain; also called cynoGDF15
T2 sequence (looked up): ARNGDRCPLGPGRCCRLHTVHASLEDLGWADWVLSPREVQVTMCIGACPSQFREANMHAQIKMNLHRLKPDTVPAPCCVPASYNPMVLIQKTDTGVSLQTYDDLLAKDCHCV
The experiment in a line: ELISA, monkey GDF15-hIgG1 Fc coated, HRP anti-mouse IgG. How it is done:
as §2
(§4) The experiment was performed as detailed in Example 2, except that the fusion protein in Example 2 was replaced with a fusion protein comprising the extracellular region of monkey GDF15 protein (Genbank accession number EHH29815.1) and human IgG1-FC (Genbank accession number CAC20454.1). The results were shown in Table 2-1, Table 2-2 and FIGS. 2-1 and 2-2.
Background: In an ELISA, binding on a coated surface is turned into a signal by an enzyme label.

The target of experiment [3] is T3, GDF15-HIS (ACROBiosystems, CAT #: GD5-H5149) (human, UniProt Q99988 197-308).
T3 construct: Bought protein; also called GDF15 (ACROBiosystems, GD5-H5149); human GDF15; not shown: His tag
T3 sequence (looked up): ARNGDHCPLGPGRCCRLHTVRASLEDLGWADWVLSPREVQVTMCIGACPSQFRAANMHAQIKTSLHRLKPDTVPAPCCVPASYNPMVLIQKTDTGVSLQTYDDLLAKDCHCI
The experiment in a line: BLI (ForteBio Octet), antibody immobilised, GDF15 200-6.25 nM. (In general: BLI is a label-free optical method that tracks binding on a fibre tip over time.)

The target of experiment [4] is T4, GDF15-mFC protein (human; mouse, UniProt Q99988 197-308).
T4 construct: extracellular domain;domain: IgG2a-FC; also called GDF15-mFc fusion protein
T4 sequence (looked up): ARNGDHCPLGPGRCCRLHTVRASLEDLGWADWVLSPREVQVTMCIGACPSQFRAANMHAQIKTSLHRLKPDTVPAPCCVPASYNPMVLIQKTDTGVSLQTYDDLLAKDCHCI
The experiment in a line: blocking ELISA, GFRAL-hIgG1 Fc coated (competitor), GDF15-mFC 20 ng/well mixed with antibody. The method, then:
as §1, with “of GFRAL” for “of human GDF15”, “number NM_207410.2)” for “number NM_004864.3)”, “[…]” for “1 ng/ml”, “dried via” for “dried by”, “well followed by incubating” for “well and incubated”
(§5) The antibodies to be tested, positive control antibody AV380-mIgG1 and blank control (PBS) were added to the wells. […] At the same time, GDF15-mFC protein (GDF15: Genbank accession number NM_004864.3; mFC: Genbank accession number AAH31470.1) was added at 20 ng/well and mixed with the antibodies to be tested. The wells were incubated at 37° C. for 1 hour, washed, and dried via tapping. Then the enzyme-labeled secondary antibody, horseradish peroxidase-labeled goat anti-mouse IgG (SIGMA, catalog number A9044-2 ml) was added to each well, at a dilution of 1:10000, 50-100 μl/well. The wells were incubated at 37° C. for 2 hours, washed, and dried via tapping. 100 μl of freshly prepared developing solution TMB was added to each well and incubated at 37° C. for 30 minutes. 2 mol/L H₂SO₄ was added to terminate the reaction, and the OD value was obtained on an enzyme-linked immunosorbent reader.

In experiment [5] the target is T4, GDF15-mFC protein. Described as above. How it is done: as §1, with “of GFRAL” for “of human GDF15”, “number NM_207410.2)” for “number NM_004864.3)”, “[…]” for “1 ng/ml”, “dried via” for “dried by”, “well followed by incubating” for “well and incubated”
as §5
This is another data set of the same source.

For experiment [6], the target named is T1, fusion protein comprising the …. Description: ELISA, human GDF15-hIgG1 Fc coated, HRP anti-mouse IgG. How it is done: as §1, §2, §3
This is another data set of the same source.

The target in experiment [7] is T2, fusion protein comprising the …. Description: ELISA, monkey GDF15-hIgG1 Fc coated, HRP anti-mouse IgG. How it is done:
as §2, §4
The source holds these as a separate data set.

The next experiment concerns the target T5, cynoGDF15-mFC (monkey (cyno); mouse, UniProt G7PWZ3 197-308).
T5 construct: also called monkey GDF15 (cynoGDF15)
T5 sequence (looked up): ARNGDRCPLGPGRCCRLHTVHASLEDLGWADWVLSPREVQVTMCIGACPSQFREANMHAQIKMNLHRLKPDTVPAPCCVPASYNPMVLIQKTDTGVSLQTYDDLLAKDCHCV
The experiment in a line: ELISA, cynoGDF15-mFC coated. How it is done:
The experiment was performed as detailed in Example 2, except that the coating protein was cynoGDF15-mFC (GDF15: Genbank accession number EHH29815.1; mFC: Genbank accession number AAH31470.1), and the antibodies to be tested (the humanized antibodies), negative control antibody (hIgG1), and positive control antibodies Ponsegromab and AV380-hIgG1 were added to each well of the coated plate.

B1: A3 (murine anti-34G9) (antibody, V domains shown)
VH: QVQLKESGPGILQPSQTLSLTCSFSGFSLNTAGMTVGWIRQPSGKGLEWLAHIWWNDDKYYNPALKSRLTISKDTSNNQIFLEIASVVTADTATYYCTRIATMNYAMDYWGQGTSVTVSS
VL: DIVMTQAPASLAVSLGQRATISCRASQSVSTSSFSYMHWYQQKPGQPPKLLIKYASNLESGVPARFSGSGSGTDFTLNIHPVEEEDTATYYCQHSWEIPYTFGGGTKLEIK
notes: Purified murine hybridoma antibody
A word on the EC50: it is the concentration that produces a half-maximal response. As a reminder, the Kd is the concentration at which binding is half-saturated. Broadly, the koff is the first-order rate constant of dissociation. In general, kon refers to a measure of how fast the partners come together. As a reminder, the IC50 is the concentration that inhibits the measured activity by half. Regarding B1, in experiment [1], the EC50 worked out at 0.109 µg/mL. In experiment [2], this molecule registered an EC50 of 0.157 µg/mL. In addition, in experiment [3], the Kd was determined as 0.0895 nM, the koff turned out to be 7.2e-05 s⁻¹ and the kon was 805000 M⁻¹ s⁻¹. Also, in the experiment with GDF15-mFC protein [4], the IC50 turned out to be 0.0916 µg/mL.

B2: A1 (murine anti-53E5) (antibody, V domains shown)
VH: QVQLKESGPGILQPSQTLSLTCSFSGFSLSTSGMGVGWIRQPSGKGLEWLAHILWDDVKRYNPALKSRLTISKDSSNSQIFLKIASVDTADTATYYCVQMAWDWFAYWGQGTLVTVSA
VL: DIVMTQAQKFMSTSVEDRVSVTCKASQNVDTNVAWYQQKPGQSPKALIYSASYRSSGVPDRFTGSGSGTDFTLTISNVQSEDLAEYFCQQYHSYPTFGGGTKLEIK
notes: as for B1
B2 came in with an IC50 with GDF15-mFC protein [5] of 0.186 µg/mL. In addition, in experiment [6], the EC50 is 0.0455 µg/mL. In experiment [3], the Kd is 0.085 nM, the koff stood at 0.000194 s⁻¹ and the kon was determined as 2.29e+06 M⁻¹ s⁻¹. The EC50 in experiment [7] turned out to be 0.0454 µg/mL.

B3: A2 (murine anti-53A8) (antibody, V domains shown)
VH: QVQLKESGPGILQPSQTLSLTCSFSGFSLSTSGMGVGWIRQPSGKGLEWLAHIRWDDVKRYNPALKSRLTISKDTSSSQIFLKIASVDTADTATYYCAQMAWDWFAYWGQGTLVTVSA
VL: DIVMTQAQKFMSTSVGDRVSVTCKASQNVDTDVAWYQQKPGQSPKALIYSASYRYSGVPDRFTGSGSGTDFTLTITNVQSEDLAEYFCHQYNSYPTFGGGTKLEIK
notes: Purified murine hybridoma antibody; also called murine antibody 53A8
Regarding B3, in the experiment with GDF15-mFC protein [5], the IC50 was determined as 0.205 µg/mL. The same molecule had an EC50 in experiment [6] of 0.0378 µg/mL. In experiment [3], binding was characterised by a dissociation constant (Kd) of 0.14 nM, the dissociation rate constant (koff) amounted to 0.000318 s⁻¹ and the kon is 2.28e+06 M⁻¹ s⁻¹. Besides, the EC50 in experiment [7] was determined as 0.0677 µg/mL.

B4: A5 (murine anti-50G3) (antibody, V domains shown)
VH: QVTLKESGPGILKPSQTLSLTCSFSGFSLSTSGMGVGWIRQPSGKGLEWLAHIWWNDDKYYNPSLKSHLTISKDTSRNQVFLMITSVDTADTATYYCARGAYDFFDYWGQGTTLTVSS
VL: DIVMTQAQNFMSTSVGDRVSVTCKASQNVDTNVAWYQQKPGQSPKALIYSASYRYSGVPDRFTGSGSGTDFTLTISNVQSDDLADYFCQQYNTYPYTFGGGTKLEIK
notes: as for B1
In turn, B4 yielded an IC50 in the experiment with GDF15-mFC protein [5] of 0.232 µg/mL. Moreover, the response in experiment [6] was half-maximal at 0.0556 µg/mL (EC50). Moreover, in experiment [3], binding was characterised by a dissociation constant (Kd) of 0.162 nM, the koff was determined as 0.000328 s⁻¹ and the kon turned out to be 2.02e+06 M⁻¹ s⁻¹. This molecule had an EC50 in experiment [7] of 0.077 µg/mL.

B5: A4 (murine anti-2A2) (antibody, V domains shown)
VH: QVTLKESGPGILQPSQTLSLTCSFSGFSLTTSGMGVDWIRQSSGKGLEWLAHIYWDDDKRYNPSLKSRLTISKDTSSNQVFLKITSVDTADTATYYCARRAWDAMDYWGQGTSFTVSS
VL: DIVMTQAQKFMSTSVGDRVSVTCKARQNVGTNVAWYQQKPGQSPKALIYSASYRYSGVPDRFTGSGSGTDFTLTISNVQSEDLAEYFCQQYNSYPYTFGGGTKLEIK
notes: as for B1
In experiment [1], B5 had an EC50 of 0.046 µg/mL. For the same molecule, in experiment [2], the EC50 was determined as 0.0827 µg/mL. Besides, in experiment [3], the affinity, expressed as Kd, was 0.146 nM; the koff amounted to 0.000214 s⁻¹; the kon was 1.47e+06 M⁻¹ s⁻¹. In addition, the IC50 with GDF15-mFC protein [4] came to 0.0898 µg/mL.

B6: A6 (murine anti-53D10) (antibody, V domains shown)
VH: QVTLKESGPGIVQPSQPFRLTCTFSGFSLSTSGIGITWIRQPSGKGLEWLATIWWDDDNRYNPSLKSRLTVSKDTSNNQAFLNIITVETADTAIYYCVQSAWDWFAYWGQGTLVTVSA
VL: DIVMTQSQKFMSTSVGDRVSVTCKASQNVGTNVAWYQQKSGQSPKALIYSASYRNSGVPDRFTGSGSGTDFTLTISNVESEDLAEYFCQQYNSHPVTFGGGTKLEIK
notes: as for B1
For the molecule B6, the IC50 with GDF15-mFC protein [5] came to 0.213 µg/mL. The molecule further displayed an EC50 in experiment [6] of 0.0602 µg/mL. Further, in experiment [3], the Kd is 0.0972 nM, the koff was 0.000217 s⁻¹ and the kon is 2.24e+06 M⁻¹ s⁻¹. In experiment [7], this molecule showed an EC50 of 0.0555 µg/mL.

B7: Ponsegromab (antibody, V domains shown)
VH: QVQLVQSGAEVKKPGSSVKVSCKASGYTFSSYNIDWVRQAPGQGLEWMGGINPIFGTAFYNQKFQGRVTITADESTSTAYMELSSLRSEDTAVYYCAREAITTVGAMDHWGQGTLVTVSS
VL: EIVLTQSPATLSLSPGERATLSCRTSQSVHNYLAWYQQKPGQAPRLLIYDASTRADGIPARFSGSGSGTDFTLTISSLEPEDFAVYYCQQFWSWPWTFGQGTKVEIKR
In the experiment with cynoGDF15-mFC, B7 had an EC50 of 0.0697 µg/mL and an OD450.Max of 1.07 OD450.
